This is an account of results in patent US20240400708A1.

Experiment [1] concerns the target Feline FcRn complex (FcRn-alpha subunit and beta-microglobulin) (feline). The experiment in a line: SPR (Biacore), feline FcRn captured on SA chip, IgG flowed over, pH 6.
The target is the same in experiment [2]. The experiment in a line: SPR (Biacore), feline FcRn captured on SA chip, IgG flowed over, pH 7.4. In general terms: Surface plasmon resonance follows binding to a sensor surface in real time, without labels.

B1: feline IgG1a Fc mutant Q311K, S428Y (antibody, part only; not given: Variable domains, not shown: another chain or arm of the molecule)
constant: ASTTAPSVFPLAPSCGTTSGATVALACLVLGYFPEPVTVSWNSGALTSGVHTFPAVLQASGLYSLSSMVTVPSSRWLSDTFTCNVAHPPSNTKVDKTVRKTDHPPGPKPCDCPKCPPPEMLGGPSIFIFPPKPKDTLSISRTPEVTCLVVDLGPDDSDVQITWFVDNTQVYTAKTSPREEQFNSTYRVVSVLPILHKDWLKGKEFKCKVNSKSLPSPIERTISKAKGQPHEPQVYVLPPAQEELSRNKVSVTCLIKSFHPPDIAVEWEITGQPEPENNYRTTPPQLDSDGTYFVYSKLSVDRSHWQRGNTYTCSVYHEALHSHHTQKSLTQSPGK
What is called Kd is a measure of binding affinity in units of concentration. A high value points to a looser complex. As for B1, the values for the Kd in experiment [1] and in experiment [2] were 3.31 nM and 35.9 nM, respectively.

B2: feline IgG1a Fc mutant S428Y, S434W (antibody, part only; not given: variable domains and light chain, not shown: another chain or arm of the molecule; small tags and cut ends)
constant: ASTTAPSVFPLAPSCGTTSGATVALACLVLGYFPEPVTVSWNSGALTSGVHTFPAVLQASGLYSLSSMVTVPSSRWLSDTFTCNVAHPPSNTKVDKTVRKTDHPPGPKPCDCPKCPPPEMLGGPSIFIFPPKPKDTLSISRTPEVTCLVVDLGPDDSDVQITWFVDNTQVYTAKTSPREEQFNSTYRVVSVLPILHQDWLKGKEFKCKVNSKSLPSPIERTISKAKGQPHEPQVYVLPPAQEELSRNKVSVTCLIKSFHPPDIAVEWEITGQPEPENNYRTTPPQLDSDGTYFVYSKLSVDRSHWQRGNTYTCSVYHEALHWHHTQKSLTQSPGK
In the case of B2, the Kd is 1.39 nM in experiment [1] and 24.1 nM in experiment [2].

B3: feline IgG1a Fc mutant S428Y, S434F (antibody, part only; not given: Variable domains, not shown: another chain or arm of the molecule; small tags and cut ends)
constant: ASTTAPSVFPLAPSCGTTSGATVALACLVLGYFPEPVTVSWNSGALTSGVHTFPAVLQASGLYSLSSMVTVPSSRWLSDTFTCNVAHPPSNTKVDKTVRKTDHPPGPKPCDCPKCPPPEMLGGPSIFIFPPKPKDTLSISRTPEVTCLVVDLGPDDSDVQITWFVDNTQVYTAKTSPREEQFNSTYRVVSVLPILHQDWLKGKEFKCKVNSKSLPSPIERTISKAKGQPHEPQVYVLPPAQEELSRNKVSVTCLIKSFHPPDIAVEWEITGQPEPENNYRTTPPQLDSDGTYFVYSKLSVDRSHWQRGNTYTCSVYHEALHFHHTQKSLTQSPGK
With B3, the Kd amounted to 1.57 nM in experiment [1] and 39.7 nM in experiment [2].

B4: feline IgG1a Fc mutant S428Y, S434Y (antibody, part only; not given: variable domains and light chain, not shown: another chain or arm of the molecule; small tags and cut ends)
constant: ASTTAPSVFPLAPSCGTTSGATVALACLVLGYFPEPVTVSWNSGALTSGVHTFPAVLQASGLYSLSSMVTVPSSRWLSDTFTCNVAHPPSNTKVDKTVRKTDHPPGPKPCDCPKCPPPEMLGGPSIFIFPPKPKDTLSISRTPEVTCLVVDLGPDDSDVQITWFVDNTQVYTAKTSPREEQFNSTYRVVSVLPILHQDWLKGKEFKCKVNSKSLPSPIERTISKAKGQPHEPQVYVLPPAQEELSRNKVSVTCLIKSFHPPDIAVEWEITGQPEPENNYRTTPPQLDSDGTYFVYSKLSVDRSHWQRGNTYTCSVYHEALHYHHTQKSLTQSPGK
Take B4: the results for the Kd in experiment [1] and in experiment [2] were 1.12 nM and 24.1 nM, respectively.
